B1: fruit fly pantothenate kinase dPANK/FblD (Fumble D) (Drosophila melanogaster) (protein)
chain: MPWFGMDIGGTLTKLVYFEPKDITPDEQDREAGILRNIRRYLTKNSAYGKTGHRDTHLQMDNVEIRKRRGSLHFIRFQTTDMGNFLSLAKQKGMAELVTTVCATGGGAFKFEQDFRDQVNMKLAKFDELDTLIKGILFADLHNRTECYYYENARDILKSEKQQFNFSQPFPFILVNVGSGVSILAVYGPDNYKRISGTSLGGGTFLGLCCLLTGCTSFEEAIQLATKGDNRKVDKLVKDIYGGDYNRFGLPGDLVASSFGQMHLNDKRVSVSREDLANATLVTITNNIGSIARMCALNEKIDRVVFVGNFLRVNPISMKLLAYAMEFWSNGTMKGLFLEHEGYFGALGCLLQFNGELAAALNDGVEHSIHTESDSASEAAQTSSTADEPPEKAPTSKHSTR
B2: human pantothenate kinase hPANK3 (Homo sapiens) (protein)
chain: PWFGMDIGGTLVKLSYFEPIDITAEEEQEEVESLKSIRKYLTSNVAYGSTGIRDVHLELKDLTLFGRRGNLHFIRFPTQDLPTFIQMGRDKNFSTLQTVLCATGGGAYKFEKDFRTIGNLHLHKLDELDCLVKGLLYIDSVSFNGQAECYYFANASEPERCQKMPFNLDDPYPLLVVNIGSGVSILAVHSKDNYKRVTGTSLGGGTFLGLCSLLTGCESFEEALEMASKGDSTQADKLVRDIYGGDYERFGLPGWAVASSFGNMIYKEKRESVSKEDLARATLVTITNNIGSVARMCAVNEKINRVVFVGNFLRVNTLSMKLLAYALDYWSKGQLKALFLEHEGYFGAVGALLGLPNFS

Legend:
Experiment in all cases: purified protein
Settings in all cases: ATP; Mg2+
[1] = substrate: CC(C)(CO)[C@@H](O)C(=O)NCCC(=O)NCCS; format: biochemical, Drosophila melanogaster
[2] = substrate: CC(C)(CO)[C@@H](O)C(=O)NCCCC(=O)O; format: biochemical, Drosophila melanogaster
[3] = substrate: CC(C)(CO)[C@@H](O)C(=O)NCCC(=O)NCCS; format: biochemical, Homo sapiens
[4] = substrate: CC(C)(CO)[C@@H](O)C(=O)NCCCC(=O)O; format: biochemical, Homo sapiens

| Protein | K0.5 [1] [µM] | K0.5 [2] [µM] | kcat [2] [s⁻¹] | kcat/Km [2] [M⁻¹ s⁻¹] | K0.5 [3] [µM] | kcat [3] [s⁻¹] | kcat/Km [3] [M⁻¹ s⁻¹] | K0.5 [4] [µM] | kcat [4] [s⁻¹] | kcat/Km [4] [M⁻¹ s⁻¹] |
| --- | --- | --- | --- | --- | --- | --- | --- | --- | --- | --- |
| B1 | 28.9 ± 13.0 | 82.2 ± 12.4 | 2.72 ± 0.5 | 35600 ± 8400 | – | – | – | – | – | – |
| B2 | – | – | – | – | 8.05 ± 1.87 | 0.41 ± 0.13 | 57600 ± 24600 | 36.2 ± 2.1 | 0.67 ± 0.02 | 19500 ± 1600 |

Reference: PMC8726015
